The target of the assay is T1, His6-PRMT5 (UniProt O14744 1-637).
T1 construct: PRMT5, cDNA AF167572.1 in pReceiver-B01 (GeneCopoeia EX-V1247-B01); also called protein arginine N-methyltransferase 5; source: E. coli BL21, purified (Ni-beads)
Briefly: pull-down; GST-CRN5 on glutathione-sepharose beads as bait; TEV-cleaved MAPK14 or purified His6-PRMT5 as prey; 50 mM Tris/HCl pH 8.0, 150 mM NaCl, 0.5 % NP-40; three washes; SDS-PAGE and immunoblot. The note with it: both partners purified. For orientation: Immunoblotting shows a protein as a band on a membrane.

T1 sequence (O14744 whole entry): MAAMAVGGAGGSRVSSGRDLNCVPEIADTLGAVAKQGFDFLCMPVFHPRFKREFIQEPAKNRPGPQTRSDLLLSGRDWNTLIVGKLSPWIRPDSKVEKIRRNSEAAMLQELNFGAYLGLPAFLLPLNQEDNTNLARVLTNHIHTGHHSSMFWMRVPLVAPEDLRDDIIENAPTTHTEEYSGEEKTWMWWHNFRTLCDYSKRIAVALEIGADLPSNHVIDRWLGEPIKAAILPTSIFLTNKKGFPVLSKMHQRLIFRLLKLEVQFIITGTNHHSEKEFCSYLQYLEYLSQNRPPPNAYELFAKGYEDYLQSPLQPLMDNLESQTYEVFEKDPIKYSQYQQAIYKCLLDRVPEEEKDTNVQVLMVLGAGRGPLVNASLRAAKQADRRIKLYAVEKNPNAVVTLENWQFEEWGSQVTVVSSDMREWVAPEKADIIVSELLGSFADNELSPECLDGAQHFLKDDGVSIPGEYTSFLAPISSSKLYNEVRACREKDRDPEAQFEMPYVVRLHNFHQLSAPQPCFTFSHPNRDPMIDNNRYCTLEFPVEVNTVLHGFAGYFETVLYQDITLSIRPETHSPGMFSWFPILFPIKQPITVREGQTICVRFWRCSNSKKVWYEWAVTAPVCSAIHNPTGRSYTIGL

B1: GST-CRN5 (coronin 2A) (natural protein, human, UniProt Q92828 1-525, looked up)
chain: MSWHPQYRSSKFRHVFGKPASKENCYDSVPITRSVHDNHFCAVNPHFIAVVTECAGGGAFLVIPLHQTGKLDPHYPKVCGHRGNVLDVKWNPFDDFEIASCSEDATIKIWSIPKQLLTRNLTAYRKELVGHARRVGLVEWHPTAANILFSAGYDYKVMIWNLDTKESVITSPMSTISCHQDVILSMSFNTNGSLLATTCKDRKIRVIDPRAGTVLQEASYKGHRASKVLFLGNLKKLMSTGTSRWNNRQVALWDQDNLSVPLMEEDLDGSSGVLFPFYDADTSMLYVVGKGDGNIRYYEVSADKPHLSYLTEYRSYNPQKGIGVMPKRGLDVSSCEIFRFYKLITTKSLIEPISMIVPRRSESYQEDIYPPTAGAQPSLTAQEWLSGMNRDPILVSLRPGSELLRPHPLPAERPIFNSMAPASPRLLNQTEKLAAEDGWRSSSLLEEKMPRWAAEHRLEEKKTWLTNGFDVFECPPPKTENELLQMFYRQQEEIRRLRELLTQREVQAKQLELEIKNLRMGSEQL
notes: coronin 2A (CRN5), human cDNA NM_052820 (origene SC109892) cloned into pGEX-4T-1; pGEX-4T-1 normally places GST at the N-terminus (surmised); also called coronin 4; ClipinB; source: E. coli BL21, purified on glutathione beads (pull-down); E. coli lysate captured on CRN5 mAb K77-578-1 / Protein G microbeads (co-immunoprecipitation)
For the molecule B1, the binding result was “binds”.
